Data reported in a protein production outcome set (Wang et al. 2014).

Test: label from the status in PepcDB records
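Also: failed if final PepcDB status was selected cloned or expressed and not failed if soluble or beyond.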

| Sequence | protein production |
| --- | --- |
| MLTFIVVNYNGEKYLKECLNSIINQTYRKLRVLVIDNGSTDGSRDILRNFEDYYSRFEVIRNEENLGFAKAANQGIEMANTKFVALVNNDAFLERNWAEEMLKAADDLRAGIFASKILFEDGRINSAGHAIHRGLAVMERGFLEKDEGQFDEPCYVAGACAAAAMYRRSLFEDVGLFDEDYFMYNEDVDLSLRALIRGWKILYVPTAIAYHLHSASTGFLSDFSVYYNSRNWVWSVVKNVPRDLLLREFPYFILRNFSSMLFFCLRGNFAILKSKIDAIRELRKFLEKRREVQQKVRFKAVEDYIEGLGFGKALKVARLAGVLR | failed |
| MLTHREYFNSKADIWDSLCAPEEKAKLETIIRGLNIAPGSTVLDVGCGTGILIPYLLAAVGPAGRIVALDIAEAMLERAQSKGFPANVEFICADVVSVPYPDATFDEVICNSAFPHFPHKLKALKEMARVLKPGGRVVICHTKARETINNLHRSLGGVIAGDQIPPGSEMMGMLVAAGLTGIEIDEALDYYLASGFKAMYE | failed |
| MLTLILAQVTTLDPARPQAEAVLAGGGRVLAVGTREELSALAPRAEVLDHRDLHLTPGLCDAHTHLVMYGASLSQLDVQGVRSVDEVRARLRERAAQTPAGEWIVGGGFLLSELGLSGYPTAADLDAVSPDHPVLLHSRDHHMIWVNSRALAAAGIHDQTPDPEGGHIVHPLGCLQENAQALVSERVPAPSESEWLAHARAGAQDLAARGYVSTHTMAFEDAAAPLALQTLAARGELPLRVWACLPHERLSAARSLGLSRVPGGLFQWGGVKFFADGALGSRTAWLHAPGFADGSGTGIALDSPDLILERGREALRLGLTPVTHAIGDRANTEVLDVYEQLRPEAEARGIRLRVEHAQHLRPEDLPRFRGLTASVQPVHLPADAAMIRELLPQREQTSYAFRSLKDAGAILAFGSDAPVAPPSVQGNFAAAVSRLGDDGLPLAPAEALTPDDVLWAYTRGPALAAGWDDEGWVKPGARAAFTLWNTIGGEARSLVL | failed |
| MLTNIERAKLQLIDETNDMVIITKAEPLDAPNGPEVVWVNKAFENISKYKANEIIGQTPRILQGKETNQNTLKMIKEALKAQTNINVDLLNYTKDGTPYWISFSIVYLRDGQGNLCYLGAIEKDITALKNLNFKLSEKAKTDPLTNVYNQENFFIAGNEAIKNFHQNQEAVGLLFFDVDDFKGINDTQGHIYGDMILKKVAQESLKLVRKTDNVFRYGGDEFAIIFSGIDVKILERKAQQLQKKLAKSHISVSIGGTISIQSDKSINTLLARADEALYYVKANKKGLFFIAE | failed |
| MLTPVADGVLVHQSELLRNNTVVVRGESGVLIVDPGLTTGEMGCLAEDLRQLGQPVVAGFATHPDWDHALWHADLGDVPRYGTARCSAYLRELRSEEGWQARVAEGLPPEIADETPLELFGLIVGLPAGAELIPWNGPEVRVIEHPAHAPGHAALLVEDRGVLVAGDMLSDLFVPMLDDTEHPVEDYLTGLRLLEKVADDVEVLVPGHGSVATADQVQVRIGRDREYLHALRDGRAPDDPRLGSSVEPGWEWVNDIHEGQAARMARRSERNGADG | failed |
| MLTTLSCCCNMPVVKVNCWNNMKVQIKSITQWGGVLLLSFSSCYVNANKLIKPNILFIAVDDLKPLIRDYGTAKVQTPNIDKLASQSTVFTRAYSQYPVCGPSRMSILTGLRPESNGIMNLKDKIRDVNPSVITLPQFFKNNGYETAATGKIFDPRNTTSRSEEEVLSWSIPYQRPKHGLKGKTRLAVESIDEPDEKFVDGGILKRGKKLLKQMANKNKPFFLAVGFKKPHLPFVAPKKYYDLYSRESFDLASYQSAPEDADTTYLFHKNQELRGYKPTPIKGGEIKPYPKGKLSSAHQKELLHGYFASVSFIDSLVGELLEELEKTGQAENTVIVFWGDHGFHLGDHGLWGKHTTMEQANHVPLIIKIPGSKANRYAKPVELLDVFPSLTEAAGLSIPNNLQGTSLVSLVTGKLKSIDKVAISQYKRKGAYGYSMRTEQYRYTQWVTPSGKVVYRDLYDLINDPLETKNIINTPEGKLLEVELNKQLHTNSAGLKRLKLEHHHHHH | failed |
| MLTTQITQTYHLTTPIISAGMAFVATPKLAAAVSNAGGMGTFSAFMSPPEELRALIRQTRSLSDRPFGIDFITAAANDDHIAICMAERVPVVIFFWSFPPLDWVTQLQNAGVKVWMQVGSLAEATQAKAQGFDAIIAQGQEGGGHNRSEASIFSLLPAICREVAPIPVIAAGGIIDGRGLVAALALGAEAVWCGTRFLASEEAYAHPEYKARVVTATVGDTTRTTLFGPEMPGQLMRVLRNLAVNQWGDRVADATKHGPTQPAIGSTILGGQALPMPKFSAILPTPDTSGDFEEMCLTAGESSGNITAIKSARDILWEMENEALDLLTYRLQAITKEQNLMAAG | failed |
| MLTVDQLALLFVLLLGAVVSVPVGDRFGLPAPVLMTLLGIGLAVADFVPNVDIPPDLILPALLPPLLYAAVRRTSWRQFTANKRPIFLLAVALVFVTTAVVALVAGAIVPGLPIAAAVALGALVAPPDPVAATAVAGQLGLPRRLVSILEGEGLFNDVTAIVLYHVAIAAAVSGTFSLPNAVLDLVLSAVVAVAVGLALGWAANRLMDLLDDVTLQIGLTLLVPYASYVLAEELHGSGVLAVLTTALFLAEYATDADDVMTRLAGHTFWNVVDTLVTGVAFGLIGLELHNALRTASGRWGEMLGWAAAIVAVVVLVRLAYLLPATWLTKRLHAKRDYDEEIPTSWRETVVMWWAGMRGVASAALALAIPLKMDDGSPFPDRDEIVFIAFGVIMGTLVLQGLTLPWLVKRLGVRADTGSEKAFEKALAIRAAKAAKRRLREIEDVEELPEELSEQLLRRAFDIGARISPDLGDEERREAHEQRVRRMKRVRRIQGEMMSAARHEVLAARSEPGADPEIVDRVLRHLDVRSLR | failed |
| MLTYFHPDQSLHHPRTYFSRGRMRMPQEVPERAARLVAAAFAMGFPVREPDDFGIAPIAAVHDTHYLRFLETVHREWKAMPEDWGDEAMSNIFVREPNALRGVLAQAARHLADGSCPVGEHTWRAAYWSAQSALAAAAAVRDGAPAAYALCRPPGHHARVDAAGGFCYLNNAAIAAQALRARHARVAVLDTDMHHGQGIQEIFYARRDVLYVSIHGDPTNFYPAVAGFDDERGAGEGLGYNVNLPMPHGSSEAAFFERVDDALRELRRFAPDALVLSLGFDVYRDDPQSQVAVTTDGFGRLGHLIGALRLPTVIVQEGGYHIESLEANARSFFGGFGALRG | not failed |
| MLVCAAFSGGAGASDAGALLEAARRGDTAQVASLLERKVEVDAPSADGSTPLLLATANDHLAVARQLIEAGADVNRQNSRLDSPYLLAGAEGRLEILRLTLLHGADLKSTNRYGGTALIPACERGHVEVVKTLLQAGVDPNHVNKLGWTGLLEAILLSDGGPRHQEIVRLLIDAGADVNLADADGVSPLAHARQRGQGGIERLLLAAGAQ | failed |
| MLVESFNPFNNLLLSSIVAAIPIILFLLCLTVFKMKGVYAAITTLIVTIIVAMAFFKLPGSIAGGATLEGFYQGIIPIGFIVIMAVWLYKIATKSGQFAIVQDSIASVSRDQRVQLLLIGFVFNGFLEGAAGFGVPIAICAVLLTQLGFKPLQAAMYCLVSNAAAGAYGAVGIPIAIVDTLNLPGGVTTSQVALIGNLTLGFISFVVPFLLMYIMDGFKGVKETFPATLVVAVTFTVLQVLIAAFAGPELADIIPGLVAMIALALFSKKWQPKNIFRINKDEKADAVPKHSIGHITYAWSPFIILTIVVMIWSLPAFKGLFEKGGALSALVVNFNVPGTMNAVTNKPNELTFNFFAQTGTAILITAIITIIIAKNMSFKTAGHLLGLTVKELWISVLTICFILAVSKITTYGGLSNAMGQGISKTGAAFPLLSPLLGWIGVFMTGSVVNNNSLFAPIQASVAEQIGTKGSLLVAANVAGGVTAKIVSPQSIAIATAAVNKVGKESELMKMAMRFSIGLLILVCIWTFICSLFIS | failed |
| MLVMKCSKCSAEAIYYAKYNGLYLCRDHFNEMIEGRVKKEIRKQVEFHGDDVTISVALSGGKDSSVTLFLLHKILGNRKNMKIKAFTVDEGIDGYRPSGLESAKRLCTSLGIDHETISFYDSYGLTLDSIVKTNPVKIPCAYCGPLRRKLINEMADKQDADYVALGLNLDDYSQSILMNVAKGDFDRFIRMSPQTDRKVGLVRRIAPLRTILEKEVVLYAVTNDIPFDSSWCPYYSRAQRNVFREVVNKLSEENPSTKFAILKFFDRVRENITTGHEEVKLKRCKICGAPTERDVCTACSSLQEVNEMMAEH | failed |
